Data taken from patent publication US20090118167A1, “Selective Vpac2 Receptor Peptide Agonists” (Eli Lilly and Company Patent Division, priority 2004, published 2009).
Square brackets hold non-standard residues; d marks the D form. Ends that are not written are not given here. Nle = CCCC[C@H](N)C(=O)O; Orn = NCCC[C@H](N)C(=O)O; Aib = CC(C)(N)C(=O)O

Experiments:
human VPAC1 = target: T1, human VPAC1 (Homo sapiens, UniProt P32241); experiment: Filter binding assay, 125I-labeled VIP tracer; conditions: membranes from cells transiently transfected with human VPAC1; read-out: Human receptor binding IC50 VPAC1
T1 construct: expressed in transfected cells
T1 sequence (P32241 31-457): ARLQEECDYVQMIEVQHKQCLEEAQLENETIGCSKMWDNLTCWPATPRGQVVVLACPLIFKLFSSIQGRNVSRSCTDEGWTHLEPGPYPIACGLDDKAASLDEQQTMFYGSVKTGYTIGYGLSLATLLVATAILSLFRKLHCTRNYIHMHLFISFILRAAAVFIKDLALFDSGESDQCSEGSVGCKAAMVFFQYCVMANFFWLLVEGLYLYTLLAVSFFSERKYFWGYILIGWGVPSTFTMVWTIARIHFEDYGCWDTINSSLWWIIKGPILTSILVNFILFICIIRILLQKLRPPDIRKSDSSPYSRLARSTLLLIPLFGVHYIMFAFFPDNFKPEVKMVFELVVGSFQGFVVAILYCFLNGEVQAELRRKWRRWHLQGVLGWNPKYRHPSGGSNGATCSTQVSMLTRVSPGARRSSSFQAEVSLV
Procedure: (§1) In order to prepare the filter plates, the presoak solution is aspirated by vacuum filtration. The plates are flushed twice with 200 μL flush buffer. 200 μL blocking buffer is added to the filter plate. The filter plate is then incubated with 200 μL presoak solution for 1 hour at room temperature.
(§2) The assay plate is filled with 25 μL assay buffer, 25 μL membranes (2.5 μg) suspended in assay buffer, 25 μL compound (agonist) in assay buffer, and 25 μL tracer (about 40000 cpm) in assay buffer. The filled plate is incubated for 1 hour with shaking.
(§3) The transfer from assay plate to filter plate is conducted. The blocking buffer is aspirated by vacuum filtration and washed two times with flush buffer. 90 μL is transferred from the assay plate to the filter plate. The 90 μL transferred from assay plate is aspirated and washed three times with 200 μL flush buffer. The plastic support is removed. It is dried for 1 hour at 60° C. 30 μL Microscint is added. The count is performed.
(§4) Values reported are single results or the mean of two or more independent runs.

Normal Wistar rats = experiment: Intravenous glucose tolerance test (IVGTT); format: in vivo, rat; conditions: 10 min between glucose and compound
Procedure: Intravenous glucose tolerance test (IVGTT): Normal Wistar rats are fasted overnight and are anesthetized prior to the experiment. A blood sampling catheter is inserted into the rats. The compound is given in the jugular vein. Blood samples are taken from the carotid artery. A blood sample is drawn immediately prior to the injection of glucose along with the compound. After the initial blood sample, glucose mixed with compound is injected intravenously (i.v.). Compound may also be injected intravenously or subcutaneously prior to the glucose challenge. A glucose challenge of 0.5 g/kg body weight is given, injecting a total of 1.5 mL vehicle with glucose and agonist per kg body weight. The peptide concentrations are varied to produce the desired dose in μg/kg. Blood samples are drawn at 2, 4, 6 and 10 minutes after giving glucose. The control group of animals receives the same vehicle along with glucose, but with no compound added. In some instances, a 30 minute post-glucose blood sample is drawn. Aprotinin is added to the blood sample (250-500 kIU/ml blood). The serum is then analyzed for glucose and insulin using standard methodologies.
The assay uses a formulated and calibrated peptide stock in PBS. Normally, this stock is a prediluted 100 μM stock. However, a more concentrated stock with approximately 1 mg agonist per mL is used. The specific concentration is always known. Variability in the maximal response is mostly due to variability in the vehicle dose.

human PAC1 = target: T2, human PAC1 (Homo sapiens, UniProt P41586); experiment: Filter binding assay, 125I-labeled PACAP-27 tracer; conditions: membranes from cells transiently transfected with human PAC1; read-out: Human receptor binding IC50 PAC1
T2 construct: expressed in transfected cells; membranes)
T2 sequence (P41586 21-468): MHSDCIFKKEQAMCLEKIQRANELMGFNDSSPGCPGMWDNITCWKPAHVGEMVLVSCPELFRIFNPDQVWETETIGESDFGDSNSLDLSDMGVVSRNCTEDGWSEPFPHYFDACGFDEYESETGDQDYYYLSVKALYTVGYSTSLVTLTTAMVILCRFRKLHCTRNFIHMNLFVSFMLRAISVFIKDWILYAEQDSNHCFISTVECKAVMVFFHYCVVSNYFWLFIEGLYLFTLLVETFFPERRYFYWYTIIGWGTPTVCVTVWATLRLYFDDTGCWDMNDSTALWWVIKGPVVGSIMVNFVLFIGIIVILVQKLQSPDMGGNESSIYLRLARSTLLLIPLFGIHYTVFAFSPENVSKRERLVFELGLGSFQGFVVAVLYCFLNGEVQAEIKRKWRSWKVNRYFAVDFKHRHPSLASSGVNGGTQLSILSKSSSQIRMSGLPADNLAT
Procedure: as §1, §2, §3, §4

[1] = rat, in vivo, sc, 0.1 mg/kg
Procedure: Healthy Fisher 344 rats (3 animals per group) are injected with 100 μg compound/kg (compound amount based on peptide content and dissolved in PBS buffer). […] PK parameters are then calculated using a model-independent method (WinNonlin Pro, Pharsight Corp., Mountain View, Calif., USA).

human VPAC2 receptor [2] = target: T3, human VPAC2 receptor (human, UniProt P41587 24-438); experiment: filter binding assay, human VPAC2 membranes, displacement of 125I-VIP
T3 construct: whole, on cells; cAMP Alpha screen assay: whole cells
T3 sequence (looked up): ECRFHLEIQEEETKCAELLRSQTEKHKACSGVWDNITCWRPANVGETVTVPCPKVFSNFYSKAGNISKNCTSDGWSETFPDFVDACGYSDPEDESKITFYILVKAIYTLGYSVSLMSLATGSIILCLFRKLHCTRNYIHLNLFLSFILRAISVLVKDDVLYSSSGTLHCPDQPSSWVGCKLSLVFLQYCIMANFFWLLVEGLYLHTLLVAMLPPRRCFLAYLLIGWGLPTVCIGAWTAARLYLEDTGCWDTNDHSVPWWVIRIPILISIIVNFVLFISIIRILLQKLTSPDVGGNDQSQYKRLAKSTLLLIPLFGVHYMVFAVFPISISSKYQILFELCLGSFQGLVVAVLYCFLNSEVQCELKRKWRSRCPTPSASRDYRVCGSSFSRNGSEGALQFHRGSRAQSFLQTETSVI
Procedure: as §2, §3

human VPAC2 receptor [3] = target: T3, human VPAC2 receptor; experiment: cell-based or functional assay
rat VPAC2 receptor = target: T4, rat VPAC2 receptor (rat, UniProt P35000 23-437); experiment: cell-based or functional assay
T4 sequence (looked up): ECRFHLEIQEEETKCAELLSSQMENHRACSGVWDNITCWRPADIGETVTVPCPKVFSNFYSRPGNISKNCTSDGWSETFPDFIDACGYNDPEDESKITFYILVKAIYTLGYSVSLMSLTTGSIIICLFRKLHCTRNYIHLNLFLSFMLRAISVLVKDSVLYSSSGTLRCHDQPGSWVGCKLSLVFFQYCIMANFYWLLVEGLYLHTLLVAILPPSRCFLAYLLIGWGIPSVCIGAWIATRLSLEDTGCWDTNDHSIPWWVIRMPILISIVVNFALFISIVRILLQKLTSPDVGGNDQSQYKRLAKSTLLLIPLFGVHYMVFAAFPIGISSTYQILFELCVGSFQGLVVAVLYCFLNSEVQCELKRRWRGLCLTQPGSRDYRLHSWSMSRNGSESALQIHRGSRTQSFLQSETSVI

rat VPAC1 receptor = target: T5, rat VPAC1 receptor (rat, UniProt P30083 31-459); experiment: cell-based or functional assay
T5 sequence (looked up): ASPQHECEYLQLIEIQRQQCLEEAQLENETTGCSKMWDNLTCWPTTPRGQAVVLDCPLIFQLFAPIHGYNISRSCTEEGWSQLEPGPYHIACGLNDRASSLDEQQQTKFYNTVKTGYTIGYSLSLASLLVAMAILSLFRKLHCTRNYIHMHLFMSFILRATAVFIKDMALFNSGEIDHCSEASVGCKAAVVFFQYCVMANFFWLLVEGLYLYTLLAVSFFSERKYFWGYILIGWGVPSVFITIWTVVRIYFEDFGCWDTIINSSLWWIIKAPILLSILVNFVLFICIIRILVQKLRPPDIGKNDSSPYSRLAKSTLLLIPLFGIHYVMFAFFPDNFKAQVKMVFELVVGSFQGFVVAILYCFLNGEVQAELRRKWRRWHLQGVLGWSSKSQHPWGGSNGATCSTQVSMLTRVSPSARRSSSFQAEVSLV

Molecule	IC50 (human VPAC1) [nM]	% increase AUC (insulin, 0-10 min after glucose) (Normal Wistar rats; Dose 0.5 μg/kg)	% increase AUC (insulin, 0-10 min after glucose) (Normal Wistar rats; Dose 5 μg/kg)	% increase AUC (insulin, 0-10 min after glucose) (Normal Wistar rats; Dose 15 μg/kg)	% increase AUC (insulin, 0-10 min after glucose) (Normal Wistar rats; Dose 50 μg/kg)	IC50 (human PAC1) [nM]	AUC0-last [1] [ng·h/mL]	Cl/F [1] [mL/min/kg]	Vd/F [1] [L/kg]	IC50 (human VPAC2 receptor [2]) [nM]	EC50 for cAMP generation, Alpha screen (human VPAC2 receptor [3]) [nM]	EC50 for cAMP generation, DiscoveRx, CHO-PO cells (rat VPAC2 receptor) [nM]	EC50 for cAMP generation, DiscoveRx, CHO-PO cells (rat VPAC1 receptor) [nM]
P257: cyclic PEGylated VPAC2 receptor peptide agonist (HSDAVFTENYTKL[Aib]KQ[Nle]AAKKYLNDLKKGGPSSGAPPPC; not fully specified (residue 39); ends and bridges not checked; also: cyclic, bridge type and places not given here, PEGylated, site not placed) [Agonist P257]	> 25000	+14%	+114%	+158%	+230%	> 3000	4396	0.383	0.425				
HSDAVFTENYTKL[Aib]KQ[Nle]AAKKYLNDLKQGGPSSGAPPPC (ends and bridges not checked; also: further groups not given here) [P255 (cyclic PEGylated VPAC2 receptor peptide agonist)]										> 100	111	51.4	> 350
HSDAVFTENYTKL[Aib]KQ[Nle]AAKKYLNDLKKGGPSSGAPPPC (ends and bridges not checked; also: further groups not given here) [P257 (cyclic PEGylated VPAC2 receptor peptide agonist)]										32.7	42.2	37.9	> 1000
HSDAVFTENYTKLR[Aib]Q[Nle]AAKKYLNDLK[Aib]KGGPSSGAPPPC (also: further groups not given here) [P348 (cyclic PEGylated VPAC2 receptor peptide agonist)]										3.54	5.82	3.26	36.9
HSDAVFTENYT[Orn]LR[Aib]Q[Nle]AA[Orn]KYLNDL[Orn][Orn]GGPSSGAPPPC (not fully specified (residue 39); also: cyclic, bridge type and places not given here, PEGylated, site not placed) [P376 (cyclic PEGylated VPAC2 receptor peptide agonist)]										4.89	4.71	9.13	48.4
HSDAVFTENYTKLRKQ[Nle]AAKKYLNDLKQGGPSSGAPPPC (ends and bridges not checked; also: further groups not given here) [P239 (cyclic PEGylated VPAC2 receptor peptide agonist)]										8.33	4.42	11.2	27.8
HSDAVFTENYTKLRKQ[Nle]AAKKYLNDLKKGGPSSGAPPPC (not fully specified (residue 39); ends and bridges not checked; also: further groups not given here) [P201 (cyclic PEGylated VPAC2 receptor peptide agonist)]										4.11	7.82	13.2	20.8
HSDAVFTENYT[Orn]LR[Aib]Q[Nle]AA[Orn]KYLNDL[Orn][Orn]GGPSSGAPPPC (also: cyclic by a side-chain bridge (lactam or disulfide), places not given here, PEGylated, site not given here) [P463 (cyclic PEGylated VPAC2 receptor peptide agonist)]										> 100	365	182	184
